Measured values published in paper PMC12014896 (2025).

B1: COVIC-166 (antibody, V domains shown)
VH: QVQLVESGGGVVQPGRSLRLSCAASGFTFSSYGMHWVRQAPGKGLEWVAVISYDGSDKYYADSVKGRFTISRDNSKNTLYLQMNSLRAEDTAVYYCAKTVAGYYYYYYGMDVWGQGTTVTVSS
VL: DIQMTQSPSSVSASVGDRVTVTCRASQDISSWLAWFQQKPGKAPKFLIYDASNLENGVPSRFSGSGSGTDFTLTISSLQPEDFATYYCQQAKSFPWTFGQGTKVEINR
B2: COVIC-310 (antibody)
chain 1: QVQLVQSGAEVKKPGSSVKVSCKASGGTFGISWVRQAPGQGLEWMGRIIPILGTANHAQKFQGRVTITADKSTGTVYMELSSLRSEDTAVYYCARDGDSGSYYETLGFDYWGQGTLVTVSSGGGGSGGGGSGGGGQVQLVESGGGVVQSGRSLRLSCAASGFTFSSYAMHWVRQAPGKGLEWVAVISHDGSNTYYEDSVKGRFTISRDNSKNTLHLQVNSLRVEDTAVYYCARAKGEVRYFDWAEQGGDYWGQGTLVTVSS
chain 2: QSALTQPPSASGSPGQSVTISCTGTSSDVGGYNYVSWYQQHPGKAPKLMIYEVNKRPSGVPDRFSGSKSGNTASLTVSGLQAEDEADYYCSSYAGSNNLVFGGGTKLTVLGGGGSGGGGSGGGGSYELTQPPSVSVSPGQTARITCSGDALPKKYAYWYQQKSGQAPVLVIYEDSKRPSGIPERFSGSSSGTMATLTISGAQVEDEADYYCYSTDNSGDHGVFGGGTKLTVL
B3: COVIC-143 (antibody, V domains shown)
VH: EVQLVESGGGVVQPGRSLRLSCAASGFTFSNYAMHWVRQAPGKGLEWVAVISYDGSNKYSADSVKGRFTISRDNSKNTLYLQMNSLRPEDTAVYYCARDGVGTMVRGVMSPLFDYWGQGTLVTVSS
VL: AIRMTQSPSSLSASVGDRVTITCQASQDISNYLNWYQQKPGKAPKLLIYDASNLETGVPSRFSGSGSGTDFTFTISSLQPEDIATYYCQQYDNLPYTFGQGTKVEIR
B4: COVIC-331 (antibody, V domains shown)
VH: EVQLVESGGGLIQVGGSLRLSCAASGLTVTSNYMNWVRQGPGKGLEWVSLIYSGGTTYYADSVKGRFTISRDDSKNTLYLQMNSLRAEDTAVYYCARPIVGARSGMDVWGQGTAVTVSS
VL: DIQMTQSPSSLSASVGDRVTITCQASQDINKYLNWYQQKPGKAPKLLIYDASNLETGVPSRFSGSGSGTDFTFTISSLQPEDLATYYCHQFDNLPGTFGGGTKVEIK
B5: COVIC-128 (antibody)
chain 1: not shown
chain 2: QVQLQESGGGLVQAGGSLRLSCAASGRTFSEYAMGWFRQAPGKEREFVATISWSGGSTYYTDSVKGRFTISRDNAKNTVYLQMNSLKPDDTAVYYCAAAGLGTVVSEWDYDYDYWGQGTQVTVSSGGSGGSQVQLQESGGGLVQAGGSLRLSCVASGSIFSINAMDWYRQAPGKQRELVAGITSGGSTNYGDFVKGRFTISRDNAKNTVYLQMDSLKPEDTAVYYCAAEVGGWGPPRPDYWGHGTQVTVSSGGGGSGGGGSKRTVAAPSVFIFPPSDEQLKSGTASVVCLLNNFYPREAKVQWKVDNALQSGNSQESVTEQDSKDSTYSLSSTLTLSKADYEKHKVYACEVTHQGLSSPVTKSFNRGEC
B6: COVIC-122 (antibody)
chain: QVQLQESGGGLVQAGGSLRLSCAASGRTFSEYAMGWFRQAPGKEREFVATISWSGGSTYYTDSVKGRFTISRDNAKNTVYLQMNSLKPDDTAVYYCAAAGLGTVVSEWDYDYDYWGQGTQVTVSSGGSGGSQVQLQESGGGLVQAGGSLRLSCAASGRTFSEYAMGWFRQAPGKEREFVATISWSGGSTYYTDSVKGRFTISRDNAKNTVYLQMNSLKPDDTAVYYCAAAGLGTVVSEWDYDYDYWGQGTQVTVSSGGGGSGGGGSKKKPLDGEYFTLQIRGRERFEMFRELNEALELKDAQAGKEPGGGGGSGGGGSQVQLQESGGGLVQAGGSLRLSCAASGRTFSEYAMGWFRQAPGKEREFVATISWSGGSTYYTDSVKGRFTISRDNAKNTVYLQMNSLKPDDTAVYYCAAAGLGTVVSEWDYDYDYWGQGTQVTVSSGGSGGSQVQLQESGGGLVQAGGSLRLSCAASGRTFSEYAMGWFRQAPGKEREFVATISWSGGSTYYTDSVKGRFTISRDNAKNTVYLQMNSLKPDDTAVYYCAAAGLGTVVSEWDYDYDYWGQGTQVTVSS
B7: COVIC-295 (antibody, V domains shown)
VH: QVQLVQSGAEVKKPGSSVKVSCKASGGTFSSYSFIWVRQAPGQGLEWMGRIIPILGIANYAQKFQGRVTITADKSTTTAYMELSSLRSEDTAVYYCARGTEYGDYDVSHDWGQGTLVTVSS
VL: not shown
B8: COVIC-290 (antibody, V domains shown)
VH: QMQLVQSGPEVKKPGTSVKVSCKASGFTFSSSAVQWVRQARGQHLEWIGWIVVGSGNTNYAQKFQERVTLTRDMSTRTAYMELSSLRSEDTAVYYCAAPNCNSTTCHDGFDIWGQGTVVTVSS
VL: EIVLTQSPGTLSLSPGERATLSCRASQSVRSSYLGWYQQKPGQAPRLLIYGASSRATGIPDRFSGSGSGTDFTLTISRLESEDFAVYYCQQYDNSPWTFGQGTKVEIK
B9: COVIC-297 (antibody, V domains shown)
VH: EVLLVESGGGLIQPGGSLRLSCAASGLTVSSNYMSWVRQAPGKGLEWVSVIYSGGSTFYADSVKGRFTISRDNSKNTLYLQMNSLRAEDTAVYYCARDLVTWGLDYWGQGTLVTVSS
VL: AIQLTQSPSSLSASVGDRVTITCRASQGISSYLAWYQQKPGKAPKLLIYAASTLQSGVPSRFSGSGSGTDFTLTISSLQPEDFATYYCQLLNTDPITFGQGTRLEIK
B10: COVIC-184 (antibody, V domains shown)
VH: QITLKESGPTLVKPTQTLTLTCTFSGFSLSTSGVGVGWIRQPPGKALEWLALIYWDDDKRYSPSLKSRLTITKDTSKNQVVLTMTNMDPVDTATYYCAHHKIERIFDYWGQGTLVTVSS
VL: QSALAQPASVSGSPGQSITISCTGTSSDVGAYNYVSWYQQHPGKAPKLMIYDVSKRPSGVSNRFSGSKSGNTASLTISGLQAEDEADYYCSSYTTSSTVFGGGTKLTVL
B11: COVIC-158 (antibody, V domains shown)
VH: EVQLVESGGGLIQPGGSLRLSCAASGLTVSSNYMNWVRQAPGKKLEWVSVIYSGGSTFYADSVRGRFTISRDNSKNTLFLQMNSLRAEDSAVYYCARDLGPYGVDVWGQGTTVTVSS
VL: DIQLTQSPSFLSASVGDRVTITCWASQGISSYLAWYQQKPGKAPKLLIYAASTLQSGVPSRFSGSGSGTEFTLTISSLQPEDFATYYCQQLNSYPLTFGQGTRLEIKR
B12: COVIC-360 (antibody, V domains shown)
VH: EVQLVESGGGLVQPGGSLRLSCKASGISVAPHAVTWVRQAPGKGLEWIGVIASNADTYYASWAKGRFTISRDNSKNTLYLQMNSLRAEDTAVYYCARHPGSAGYGYTYYYAMDPWGQGTLVTVSS
VL: DIQMTQSPSSLSASVGDRVTITCQASQKIHYAINWYQQKPGKAPKLLIYGTSYLGGGVPSRFSGSGSGTDFTLTISSLQPEDFATYYCQQGYIVPNSFGGGTKVEIK
B13: COVIC-31 (antibody, V domains shown)
VH: EVQLVESGVEVKKPGASVKVSCKAFGYTFTGQDMHWVRQAPGQGLEWMGWINPSSAGTNYAQKFQGRVTMTRDTSISTAYMELSRLRSDDTSVYYCRKMLTIFGKVNQTMLLISGAKGQWSPSLQWGQGTMVTVSS
VL: DIVMTQTPLSLSVTPGQPASISCKSGQSLLHSDGKTYLYWYLQKPGQPPQLLIYEVSNRFSGVPDRFSGSGSGTDFTLKISRVEAEDVGVYYCMQSIQLPPTFGQGTKVEIK
B14: COVIC-250 (antibody, V domains shown)
VH: QVQLQQSGPGLVKPSETLALTCTVSGGSTSSYYWSWIRQPPGKGLEWIGSIYYSGSTDYNPSLKSRVTISLDTSKTQFSLKLSSVTAADTAVYYCARVDTSGWYTGDVFDYWGQGTLVTVSS
VL: DIQMTQPPSSLSASVGDRVTITCRASQSLSSYLNWYQQKPGKAPKLLIYAVFSLQSGVPSRFSGSGSGTDFTLTISSLQPEDFATYYCQQSYSTPLTFGGGTKVEIK
B15: COVIC-186 (antibody, V domains shown)
VH: QVQLLQSGAEVKKPGASVKVSCKASGYSFTSYYMHWVRQAPGQGLEWMGIINPSGGGTTYAQKFQGRVTMTRDTSTSTVYMELSSLRSEDTAVYYCARPGGGSYQEFDYWGQGTLVTVSS
VL: DIQMTQSPSSLSASVGDRVTITCRASQSISSYLNWYQQKPGKAPKLLISAASSLQSGVPSRFSGSGSGTDFTLTISSLQPEDFATYYCQQSYNTLQVTFGGGTKVEIK

Biological target: SARS-CoV-2 spike RBD (Wuhan-Hu-1) (Severe acute respiratory syndrome …, UniProt P0DTC2)
Assay: SPR

Binder	Kd
B1	0.826 nM
B2	1.85 nM
B3	5.91 nM
B4	0.0704 nM
B5	119 nM
B6	203 nM
B7	0.266 nM
B8	0.326 nM
B9	0.271 nM
B10	34.4 nM
B11	1.59 nM
B12	0.0132 nM
B13	70.2 nM
B14	17.7 nM
B15	6.1 nM
